Patent publication US20210246166A1 (Bayer, published 2021)
Numbered stars: 1 amine (or outer) side, 2 acyl side, 3 side chain; on linkers, the order of the positions; unused ones are H or OH. Bridge positions count the residues as written; N and C are the ends. Square brackets hold non-standard residues; d marks the D form. Primed or numbered codes have the meaning given here. Ends that are not written are not given here. TTDS(3) = 1,13-Diamino-4,7,10-trioxatridecan-succinamic acid; Pro(3S,4R-methano) = O=C(O)[C@H]1NC[C@@H]2C[C@@H]21; cPrCO(1-aminomethyl) = O=C(C1(CN[*:1])CC1)[*:2]; Oic = O=C(O)[C@@H]1C[C@@H]2CCCC[C@@H]2N1; PEG6 = NCCOCCOCCOCCOCCOCCOCCC(=O)O; NMeI = CC[C@H](C)[C@H](NC)C(=O)O; tBuAla = CC(C)(C)C[C@H](N)C(=O)O; Pen = CC(C)(S)[C@H](N)C(=O)O; NMeC = CN[C@@H](CS)C(=O)O; PEG3 = NCCOCCOCCOCCC(=O)O; Nle = CCCC[C@H](N)C(=O)O; Orn = NCCC[C@H](N)C(=O)O; Nva = CCC[C@H](N)C(=O)O; Sar = CNCC(=O)O

B1: AIC+SRS-((tBu)A)-PPI-((N-Me)C)+IPD-OH (peptide)
peptide: AICSRS[tBuAla]PPI[NMeC]IPD-OH
modifications: disulfide 3-11; N-terminus assumed
SMILES: CC[C@H](C)[C@H](NC(=O)[C@H](C)N)C(=O)N[C@H]1CSSC[C@@H](C(=O)N[C@H](C(=O)N2CCC[C@H]2C(=O)N[C@@H](CC(=O)O)C(=O)O)[C@@H](C)CC)N(C)C(=O)[C@H]([C@@H](C)CC)NC(=O)[C@@H]2CCCN2C(=O)[C@@H]2CCCN2C(=O)[C@H](CC(C)(C)C)NC(=O)[C@H](CO)NC(=O)[C@H](CCCNC(=N)N)NC(=O)[C@H](CO)NC1=O
B2: (Nle)-IC+SRS-((tBu)A)-PPI-(Pen)+IPD-NH2 (peptide)
peptide: [Nle]ICSRS[tBuAla]PPI[Pen]IPD-NH2
modifications: disulfide 3-11; N-terminus assumed
SMILES: CCCC[C@H](N)C(=O)N[C@H](C(=O)N[C@H]1CSSC(C)(C)[C@@H](C(=O)N[C@H](C(=O)N2CCC[C@H]2C(=O)N[C@@H](CC(=O)O)C(N)=O)[C@@H](C)CC)NC(=O)[C@H]([C@@H](C)CC)NC(=O)[C@@H]2CCCN2C(=O)[C@@H]2CCCN2C(=O)[C@H](CC(C)(C)C)NC(=O)[C@H](CO)NC(=O)[C@H](CCCNC(=N)N)NC(=O)[C@H](CO)NC1=O)[C@@H](C)CC
B3: AIC+SRS-((tBu)A)-P-(Oic)-IC+IPD-NH2 (HCl salt) (peptide)
peptide: AICSRS[tBuAla]P[Oic]ICIPD-NH2
modifications: disulfide 3-11; also: HCl salt
B4: (Nva)-IC+SRS-((tBu)A)-PPI-(((N-Me)C))+I-NH2 (peptide)
peptide: [Nva]ICSRS[tBuAla]PPI[NMeC]I-NH2
modifications: disulfide 3-11; N-terminus assumed
SMILES: CCC[C@H](N)C(=O)N[C@H](C(=O)N[C@H]1CSSC[C@@H](C(=O)N[C@H](C(N)=O)[C@@H](C)CC)N(C)C(=O)[C@H]([C@@H](C)CC)NC(=O)[C@@H]2CCCN2C(=O)[C@@H]2CCCN2C(=O)[C@H](CC(C)(C)C)NC(=O)[C@H](CO)NC(=O)[C@H](CCCNC(=N)N)NC(=O)[C@H](CO)NC1=O)[C@@H](C)CC
B5: ((N-Me)G)-IC+SRS-((tBu)A)-PPI-(Pen)+IP-(PEG5(22 atoms))-NH2 (peptide)
peptide: [Sar]ICSRS[tBuAla]PPI[Pen]IP[PEG6]-NH2
modifications: disulfide 3-11; N-terminus assumed
SMILES: CC[C@H](C)[C@H](NC(=O)CNC)C(=O)N[C@H]1CSSC(C)(C)[C@@H](C(=O)N[C@H](C(=O)N2CCC[C@H]2C(=O)NCCOCCOCCOCCOCCOCCOCCC(N)=O)[C@@H](C)CC)NC(=O)[C@H]([C@@H](C)CC)NC(=O)[C@@H]2CCCN2C(=O)[C@@H]2CCCN2C(=O)[C@H](CC(C)(C)C)NC(=O)[C@H](CO)NC(=O)[C@H](CCCNC(=N)N)NC(=O)[C@H](CO)NC1=O
B6: ((N-Me)G)-IC+SRSLP-(Oic)-I-(Pen)+IP-(PEG2(13 atoms))-NH2 (peptide)
peptide: [Sar]ICSRSLP[Oic]I[Pen]IP[PEG3]-NH2
modifications: disulfide 3-11; N-terminus assumed
SMILES: CC[C@H](C)[C@H](NC(=O)CNC)C(=O)N[C@H]1CSSC(C)(C)[C@@H](C(=O)N[C@H](C(=O)N2CCC[C@H]2C(=O)NCCOCCOCCOCCC(N)=O)[C@@H](C)CC)NC(=O)[C@H]([C@@H](C)CC)NC(=O)[C@@H]2C[C@@H]3CCCC[C@@H]3N2C(=O)[C@@H]2CCCN2C(=O)[C@H](CC(C)C)NC(=O)[C@H](CO)NC(=O)[C@H](CCCNC(=N)N)NC(=O)[C@H](CO)NC1=O
B7: (ACMP)-IC+SRS-((tBu)A)-PPI-((N-Me)C)+I-NH2 (peptide)
peptide: [cPrCO(1-aminomethyl)]ICSRS[tBuAla]PPI[NMeC]I-NH2
modifications: disulfide 3-11; N-terminus assumed
SMILES: CC[C@H](C)[C@H](NC(=O)[C@@H]1CSSC[C@H](NC(=O)[C@@H](NC(=O)C2(CN)CC2)[C@@H](C)CC)C(=O)N[C@@H](CO)C(=O)N[C@@H](CCCNC(=N)N)C(=O)N[C@@H](CO)C(=O)N[C@@H](CC(C)(C)C)C(=O)N2CCC[C@H]2C(=O)N2CCC[C@H]2C(=O)N[C@@H]([C@@H](C)CC)C(=O)N1C)C(N)=O
B8: aIC+SRSLP-(Oic)-I-(Pen)+I-OH (peptide)
peptide: [dA]ICSRSLP[Oic]I[Pen]I-OH
modifications: disulfide 3-11; N-terminus assumed
SMILES: CC[C@H](C)[C@H](NC(=O)[C@H]1NC(=O)[C@H]([C@@H](C)CC)NC(=O)[C@@H]2C[C@@H]3CCCC[C@@H]3N2C(=O)[C@@H]2CCCN2C(=O)[C@H](CC(C)C)NC(=O)[C@H](CO)NC(=O)[C@H](CCCNC(=N)N)NC(=O)[C@H](CO)NC(=O)[C@@H](NC(=O)[C@@H](NC(=O)[C@@H](C)N)[C@@H](C)CC)CSSC1(C)C)C(=O)O
B9: ((N-Me)G)-IC+SRSL-((1S,2S,5R)-3-azabicyclo[3.1.0]hexane-2-carboxylic acid)-PI-(Pen)+IPE-NH2 (peptide)
peptide: [Sar]ICSRSL[Pro(3S,4R-methano)]PI[Pen]IPE-NH2
modifications: disulfide 3-11; N-terminus assumed
SMILES: CC[C@H](C)[C@H](NC(=O)CNC)C(=O)N[C@H]1CSSC(C)(C)[C@@H](C(=O)N[C@H](C(=O)N2CCC[C@H]2C(=O)N[C@@H](CCC(=O)O)C(N)=O)[C@@H](C)CC)NC(=O)[C@H]([C@@H](C)CC)NC(=O)[C@@H]2CCCN2C(=O)[C@@H]2[C@H]3C[C@H]3CN2C(=O)[C@H](CC(C)C)NC(=O)[C@H](CO)NC(=O)[C@H](CCCNC(=N)N)NC(=O)[C@H](CO)NC1=O
B10: (Orn)-IC+SRS-((tBu)A)-PPI-((N-Me)C)+I-NH2 (peptide)
peptide: [Orn]ICSRS[tBuAla]PPI[NMeC]I-NH2
modifications: disulfide 3-11; N-terminus assumed
SMILES: CC[C@H](C)[C@H](NC(=O)[C@@H]1CSSC[C@H](NC(=O)[C@@H](NC(=O)[C@@H](N)CCCN)[C@@H](C)CC)C(=O)N[C@@H](CO)C(=O)N[C@@H](CCCNC(=N)N)C(=O)N[C@@H](CO)C(=O)N[C@@H](CC(C)(C)C)C(=O)N2CCC[C@H]2C(=O)N2CCC[C@H]2C(=O)N[C@@H]([C@@H](C)CC)C(=O)N1C)C(N)=O
B11: SIC+SRS-((tBu)A)-PPI-((N-Me)C)+I-NH2 (peptide)
peptide: SICSRS[tBuAla]PPI[NMeC]I-NH2
modifications: disulfide 3-11; N-terminus assumed
SMILES: CC[C@H](C)[C@H](NC(=O)[C@@H]1CSSC[C@H](NC(=O)[C@@H](NC(=O)[C@@H](N)CO)[C@@H](C)CC)C(=O)N[C@@H](CO)C(=O)N[C@@H](CCCNC(=N)N)C(=O)N[C@@H](CO)C(=O)N[C@@H](CC(C)(C)C)C(=O)N2CCC[C@H]2C(=O)N2CCC[C@H]2C(=O)N[C@@H]([C@@H](C)CC)C(=O)N1C)C(N)=O
B12: AIC+SRSLP-(rel-(1R,3R,5R,6R)-6-(Trifluoromethyl)-2-azabicyclo[3.1.0]hexane-3-carboxylic acid)-IC+IPD-NH2 (peptide)
peptide: AICSRSLP[rel‑(1R,3R,5R,6R)‑6‑(Trifluoromethyl)‑2‑azabicyclo(3.1.0)hexane‑3‑carboxylic acid]ICIPD-NH2
modifications: disulfide 3-11
B13: AIC+SRS-((tBu)A)-PPI-(Pen)+IPD-NH2 (peptide)
peptide: AICSRS[tBuAla]PPI[Pen]IPD-NH2
modifications: disulfide 3-11; N-terminus assumed
SMILES: CC[C@H](C)[C@H](NC(=O)[C@H](C)N)C(=O)N[C@H]1CSSC(C)(C)[C@@H](C(=O)N[C@H](C(=O)N2CCC[C@H]2C(=O)N[C@@H](CC(=O)O)C(N)=O)[C@@H](C)CC)NC(=O)[C@H]([C@@H](C)CC)NC(=O)[C@@H]2CCCN2C(=O)[C@@H]2CCCN2C(=O)[C@H](CC(C)(C)C)NC(=O)[C@H](CO)NC(=O)[C@H](CCCNC(=N)N)NC(=O)[C@H](CO)NC1=O
B14: ((N-Me)G)-IC+SRS-((tBu)A)-PPI-(Pen)+IP-(TTDS)-NH2 (peptide)
peptide: [Sar]ICSRS[tBuAla]PPI[Pen]IP-{TTDS(3)-NH2}
modifications: disulfide 3-11
B15: ((N-Me)G)-((N-Me)I)-C+SRS-((tBu)A)-PPI-(Pen)+I-NH2 (peptide)
peptide: [Sar][NMeI]CSRS[tBuAla]PPI[Pen]I-NH2
modifications: disulfide 3-11; N-terminus assumed
SMILES: CC[C@H](C)[C@H](NC(=O)[C@H]1NC(=O)[C@H]([C@@H](C)CC)NC(=O)[C@@H]2CCCN2C(=O)[C@@H]2CCCN2C(=O)[C@H](CC(C)(C)C)NC(=O)[C@H](CO)NC(=O)[C@H](CCCNC(=N)N)NC(=O)[C@H](CO)NC(=O)[C@@H](NC(=O)[C@H]([C@@H](C)CC)N(C)C(=O)CNC)CSSC1(C)C)C(N)=O

Key:
[1] = biological target: T1, recombinant human MASP1 active protease (amino acids 297-699, C-terminal His Tag) (human, UniProt P48740 297-699); assay: cell-based or functional assay
T1 sequence: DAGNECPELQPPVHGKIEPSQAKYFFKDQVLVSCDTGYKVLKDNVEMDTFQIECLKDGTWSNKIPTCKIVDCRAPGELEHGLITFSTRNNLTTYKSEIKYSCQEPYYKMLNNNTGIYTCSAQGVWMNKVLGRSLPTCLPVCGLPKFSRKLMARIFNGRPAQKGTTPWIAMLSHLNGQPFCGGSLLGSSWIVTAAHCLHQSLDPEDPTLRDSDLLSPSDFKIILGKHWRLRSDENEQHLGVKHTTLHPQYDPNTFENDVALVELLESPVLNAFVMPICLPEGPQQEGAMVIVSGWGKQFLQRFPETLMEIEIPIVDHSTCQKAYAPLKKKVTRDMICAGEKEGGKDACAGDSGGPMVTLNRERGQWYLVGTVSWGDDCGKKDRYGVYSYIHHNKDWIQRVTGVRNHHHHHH

[2] = biological target: recombinant human MASP2 active protease (amino acids 297-686, C-terminal His Tag) (human, UniProt O00187 297-686); assay: cell-based or functional assay
recombinant human MASP2 active protease (amino acids 297-686, C-terminal His Tag), sequence (O00187 other isoform, or with tags, fused parts or gaps limits assumed): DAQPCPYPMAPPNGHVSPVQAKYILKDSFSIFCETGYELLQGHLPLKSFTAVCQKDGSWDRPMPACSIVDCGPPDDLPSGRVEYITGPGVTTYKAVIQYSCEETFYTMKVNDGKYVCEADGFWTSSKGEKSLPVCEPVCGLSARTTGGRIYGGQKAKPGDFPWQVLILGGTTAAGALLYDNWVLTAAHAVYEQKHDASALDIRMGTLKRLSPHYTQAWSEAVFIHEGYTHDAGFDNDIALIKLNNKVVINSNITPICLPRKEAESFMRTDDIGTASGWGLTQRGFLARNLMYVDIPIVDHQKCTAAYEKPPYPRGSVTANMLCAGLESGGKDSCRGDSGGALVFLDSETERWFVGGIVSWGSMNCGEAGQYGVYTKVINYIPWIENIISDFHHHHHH

| Binder | human MASP1 IC50 [1] | human MASP2 IC50 [2] |
| --- | --- | --- |
| B1 | 2.45 nM | 185 nM |
| B2 | 2.6 nM | 38 nM |
| B3 | 2.5 nM | 190 nM |
| B4 | 1.1 nM | 50 nM |
| B5 | 2.5 nM | 48 nM |
| B6 | 1.1 nM | 23 nM |
| B7 | 2.6 nM | 360 nM |
| B8 | 2.6 nM | 92 nM |
| B9 | 2.5 nM | 70 nM |
| B10 | 2.6 nM | 130 nM |
| B11 | 2.8 nM | 230 nM |
| B12 | 2.8 nM | 2800 nM |
| B13 | 2.6 nM | 83 nM |
| B14 | 2.4 nM | 58 nM |
| B15 | 2.7 nM | 320 nM |
